Publication PMC3892060

What was measured:
[1] = target: AP2μ-eCFP fusion (human (HeLa cDNA library)) (UniProt Q96CW1); assay: FRET or BRET; FACS-based FRET; 293 T cells cotransfected with Nef-YFP fusion vectors and AP2μ-CFP; 24 hours later the amount of cells scoring FRET+ measured by flow cytometry
[2] = target: AP2μ-eCFP fusion (UniProt Q96CW1); assay: FACS-based FRET assay; conditions: 293T cells cotransfected with Nef-YFP and AP2µ-CFP, measured 24 hours later
[3] = mean and SD of four to nine independent transfections, parent: est. 62, read off a plot

| Substance | percent of FRET+ cells (mean) [1] | response (% FRET+ cells) [2, 3] | response (% FRET+ cells) ([2]; representative single FACS plot (upper row of panel A), parent: 69.8) |
| --- | --- | --- | --- |
| HIV-2 Ben Nef-YFP (natural protein) | < 35% | – | – |
| SIVmac 239 Nef-YFP G2A | – | 3 | – |
| SIVmac 239 Nef-YFP Y28A | – | 26 | – |
| SIVmac 239 Nef-YFP Y28F | – | 32 | 38.1 |
| SIVsm FFm1 Nef-YFP (natural protein) | < 35% | – | – |
